This data set has as its system Site C binding proteins, HeLa nuclear fraction (HA pool; LBP-1b and LBP-1c/LSF identified by MS) (Homo sapiens). The data set can be described thus: pulldown.

Turning to “TCGCGGCGAGAGTTTCAGGCAGCGCTGCGT (double strand) [OBC oligo]”, the binding signal (fmol shifted per ug protein) (equivalent OBC column fraction, 6,300 units and 103 ug, four fold less Site C EMSA activity recovered than from Site C column) amounted to 61.2.

“TCGCGGCGCGAGTTTCAGGCAGCGCTGCGT (double strand) [Site C oligo (hTERT promoter)]”: the binding signal (fmol shifted per ug protein) (oligo affinity column fraction, 25,332 units and 36.7 ug protein, activity assayed by Site C EMSA) was determined as 690.

These data come from patent US20080213812.
